Measurements as given in paper PMC5933747 (PLoS ONE, 2018).

How the values were obtained:
human NaV1.7 [1] = target: T1, human NaV1.7 (Homo sapiens, UniProt Q15858)
human NaV1.4 [2] = target: T2, human NaV1.4 (Homo sapiens, UniProt P35499); test: PatchXpress (PX) automated electrophysiology, human NaV1.4; assay type: cell-based; settings: for IC50: PX platform, at least ten cells, two to three data points per concentration
Procedure: Human NaV (hNaV) stably transfected cell lines in HEK293 or CHO backgrounds and cell culture methods were as previously described. hNaV1.1-hNaV1.7 cells were obtained from Eurofins Pharma Discovery Services (St. Charles, MO), and hNaV1.8 cells were generated in house. Whole cell patch clamp, PatchXpress, and IWQ electrophysiology voltage protocols as well as DRG neuron isolation were carried out as previously described. NaV1.7-NaV1.5 chimeras were generated and evaluated in BacMam transduced U2-OS cells on the IWQ platform as previously described.

human NaV1.5 [3] = target: T3, human NaV1.5 (Homo sapiens, UniProt Q14524); test: PatchXpress (PX) automated electrophysiology, human NaV1.5; assay type: cell-based; settings: PX platform; at least ten cells, two to three data points per concentration
human NaV1.7 [4] = target: T1, human NaV1.7; remark: listed apart in the source
human NaV1.7 [5] = target: T1, human NaV1.7; remark: listed apart in the source
human NaV1.7 [6] = target: T1, human NaV1.7; remark: listed apart in the source
wild-type NaV1.5 = wild-type NaV1.5 (Homo sapiens, UniProt Q14524)
human NaV1.5 [7] = target: T3, human NaV1.5; test: IonWorks Quattro (IWQ) electrophysiology, human NaV1.5; assay type: cell-based
human NaV1.7 [8] = target: T1, human NaV1.7; test: 125I-ProTx-II radioligand binding to live HEK293 cells stably expressing human NaV1.7; settings: 0.5 nM 125I-ProTx-II, 3 h, increasing concentrations of cold peptide
human NaV1.4 [9] = target: T2, human NaV1.4; test: IonWorks Quattro (IWQ) electrophysiology, human NaV1.4; assay type: cell-based; settings: read-out: Ala mutant IWQ IC50 NaV1.4
human NaV1.7 [10] = target: T1, human NaV1.7; test: IonWorks Quattro (IWQ) electrophysiology, human NaV1.7; assay type: cell-based; settings: read-out: Ala mutant IWQ IC50 NaV1.7

T3 sequence (Q14524 whole entry): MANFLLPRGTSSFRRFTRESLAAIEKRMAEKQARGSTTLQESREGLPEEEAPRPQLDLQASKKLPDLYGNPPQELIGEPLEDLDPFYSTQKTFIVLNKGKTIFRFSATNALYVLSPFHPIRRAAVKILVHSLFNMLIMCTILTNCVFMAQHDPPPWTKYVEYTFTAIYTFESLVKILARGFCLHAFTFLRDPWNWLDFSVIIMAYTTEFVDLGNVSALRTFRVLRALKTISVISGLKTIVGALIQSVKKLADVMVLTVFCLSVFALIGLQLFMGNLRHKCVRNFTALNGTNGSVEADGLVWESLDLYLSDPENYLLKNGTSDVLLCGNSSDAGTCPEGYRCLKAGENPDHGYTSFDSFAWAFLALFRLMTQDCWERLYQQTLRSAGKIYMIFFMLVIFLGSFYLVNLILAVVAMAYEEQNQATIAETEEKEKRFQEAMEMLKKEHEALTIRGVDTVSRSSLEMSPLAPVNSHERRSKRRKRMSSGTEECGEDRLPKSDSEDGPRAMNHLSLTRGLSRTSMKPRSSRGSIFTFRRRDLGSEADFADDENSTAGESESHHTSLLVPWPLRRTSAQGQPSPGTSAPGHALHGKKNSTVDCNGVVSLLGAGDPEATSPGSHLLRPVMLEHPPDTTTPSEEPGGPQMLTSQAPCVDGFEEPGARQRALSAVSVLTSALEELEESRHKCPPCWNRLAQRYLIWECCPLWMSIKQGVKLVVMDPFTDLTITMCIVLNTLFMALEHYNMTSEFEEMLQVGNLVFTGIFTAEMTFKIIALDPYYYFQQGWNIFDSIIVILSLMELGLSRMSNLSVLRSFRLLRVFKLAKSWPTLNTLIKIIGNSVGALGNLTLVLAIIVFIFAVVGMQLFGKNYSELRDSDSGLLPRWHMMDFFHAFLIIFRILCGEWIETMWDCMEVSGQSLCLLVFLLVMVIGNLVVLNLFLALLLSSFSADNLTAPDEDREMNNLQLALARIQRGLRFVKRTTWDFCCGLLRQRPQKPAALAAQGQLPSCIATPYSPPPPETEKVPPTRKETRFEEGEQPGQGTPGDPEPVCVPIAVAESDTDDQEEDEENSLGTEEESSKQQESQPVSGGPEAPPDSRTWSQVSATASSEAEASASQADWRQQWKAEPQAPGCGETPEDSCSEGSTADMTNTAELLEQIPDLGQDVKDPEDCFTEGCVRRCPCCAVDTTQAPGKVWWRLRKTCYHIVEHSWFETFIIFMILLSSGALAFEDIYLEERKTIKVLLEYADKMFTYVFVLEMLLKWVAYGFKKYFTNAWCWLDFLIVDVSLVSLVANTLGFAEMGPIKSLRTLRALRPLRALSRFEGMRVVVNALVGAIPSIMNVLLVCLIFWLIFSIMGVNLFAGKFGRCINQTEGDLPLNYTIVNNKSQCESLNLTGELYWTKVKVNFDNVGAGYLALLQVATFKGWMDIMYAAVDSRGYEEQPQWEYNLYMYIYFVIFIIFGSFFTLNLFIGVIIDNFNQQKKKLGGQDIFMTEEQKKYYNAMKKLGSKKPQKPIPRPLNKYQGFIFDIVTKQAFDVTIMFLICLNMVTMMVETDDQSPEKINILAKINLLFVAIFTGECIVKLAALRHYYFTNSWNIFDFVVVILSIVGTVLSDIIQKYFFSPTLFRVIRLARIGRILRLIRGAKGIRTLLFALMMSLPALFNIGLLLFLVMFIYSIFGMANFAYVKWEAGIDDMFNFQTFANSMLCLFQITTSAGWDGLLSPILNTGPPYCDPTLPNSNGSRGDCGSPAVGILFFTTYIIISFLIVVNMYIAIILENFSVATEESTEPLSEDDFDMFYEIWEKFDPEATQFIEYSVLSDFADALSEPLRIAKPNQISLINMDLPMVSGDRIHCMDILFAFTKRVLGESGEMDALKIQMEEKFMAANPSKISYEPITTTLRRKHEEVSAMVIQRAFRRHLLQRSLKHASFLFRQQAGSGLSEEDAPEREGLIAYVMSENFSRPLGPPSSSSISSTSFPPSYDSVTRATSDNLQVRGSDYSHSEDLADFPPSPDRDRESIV
T1 sequence (Q15858 whole entry): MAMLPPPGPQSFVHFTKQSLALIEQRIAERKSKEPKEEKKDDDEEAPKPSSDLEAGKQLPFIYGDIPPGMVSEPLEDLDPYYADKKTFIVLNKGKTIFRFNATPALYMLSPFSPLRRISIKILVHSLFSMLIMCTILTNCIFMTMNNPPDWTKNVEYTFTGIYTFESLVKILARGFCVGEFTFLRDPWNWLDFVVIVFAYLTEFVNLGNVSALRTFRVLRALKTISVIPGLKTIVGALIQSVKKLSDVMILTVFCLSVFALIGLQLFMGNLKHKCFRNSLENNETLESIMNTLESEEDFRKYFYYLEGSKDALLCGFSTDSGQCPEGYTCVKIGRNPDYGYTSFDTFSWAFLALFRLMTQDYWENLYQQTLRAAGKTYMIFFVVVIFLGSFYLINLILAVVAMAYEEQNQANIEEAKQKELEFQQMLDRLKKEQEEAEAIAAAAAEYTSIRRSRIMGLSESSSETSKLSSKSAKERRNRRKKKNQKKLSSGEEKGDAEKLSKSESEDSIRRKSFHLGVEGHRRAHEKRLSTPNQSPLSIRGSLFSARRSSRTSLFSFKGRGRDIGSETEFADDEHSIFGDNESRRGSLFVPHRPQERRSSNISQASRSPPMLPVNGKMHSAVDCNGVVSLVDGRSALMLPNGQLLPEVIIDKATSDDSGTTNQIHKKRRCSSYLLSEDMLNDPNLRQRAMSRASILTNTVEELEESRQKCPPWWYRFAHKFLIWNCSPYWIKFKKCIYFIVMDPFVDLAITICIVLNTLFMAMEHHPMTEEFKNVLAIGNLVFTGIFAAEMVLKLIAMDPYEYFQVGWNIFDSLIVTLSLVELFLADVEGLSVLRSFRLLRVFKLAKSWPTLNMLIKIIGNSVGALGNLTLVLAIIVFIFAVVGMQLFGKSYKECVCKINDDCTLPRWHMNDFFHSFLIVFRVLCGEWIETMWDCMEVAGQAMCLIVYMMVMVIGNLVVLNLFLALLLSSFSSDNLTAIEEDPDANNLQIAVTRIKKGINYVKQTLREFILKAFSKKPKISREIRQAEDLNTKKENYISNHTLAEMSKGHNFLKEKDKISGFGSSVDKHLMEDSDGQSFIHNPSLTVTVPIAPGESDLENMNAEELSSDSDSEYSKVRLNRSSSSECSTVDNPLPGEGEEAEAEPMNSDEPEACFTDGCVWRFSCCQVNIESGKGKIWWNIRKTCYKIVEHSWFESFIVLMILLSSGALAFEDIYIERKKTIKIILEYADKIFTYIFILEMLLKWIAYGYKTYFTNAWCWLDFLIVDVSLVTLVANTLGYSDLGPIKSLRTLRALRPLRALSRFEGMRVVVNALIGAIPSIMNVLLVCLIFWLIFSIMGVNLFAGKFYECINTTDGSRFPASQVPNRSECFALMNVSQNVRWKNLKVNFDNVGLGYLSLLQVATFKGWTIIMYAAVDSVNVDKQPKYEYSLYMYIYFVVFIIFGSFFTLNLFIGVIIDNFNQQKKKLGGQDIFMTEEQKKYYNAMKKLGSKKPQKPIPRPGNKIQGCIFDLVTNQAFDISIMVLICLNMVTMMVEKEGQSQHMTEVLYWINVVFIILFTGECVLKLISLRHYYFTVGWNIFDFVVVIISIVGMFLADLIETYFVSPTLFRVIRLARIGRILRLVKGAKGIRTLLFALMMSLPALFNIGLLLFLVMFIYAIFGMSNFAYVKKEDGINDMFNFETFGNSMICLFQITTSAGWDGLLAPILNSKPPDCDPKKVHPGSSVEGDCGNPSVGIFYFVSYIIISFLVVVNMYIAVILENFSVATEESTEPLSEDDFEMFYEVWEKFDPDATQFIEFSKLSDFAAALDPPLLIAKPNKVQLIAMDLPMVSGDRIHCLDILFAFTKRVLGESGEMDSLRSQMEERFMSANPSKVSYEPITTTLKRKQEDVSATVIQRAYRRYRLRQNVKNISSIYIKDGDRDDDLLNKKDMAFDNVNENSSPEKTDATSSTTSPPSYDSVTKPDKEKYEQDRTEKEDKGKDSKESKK
JzTx-V(1–29), sequence (Q2PAY4 54-83): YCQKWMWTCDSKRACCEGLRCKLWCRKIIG

[Nle6;Pra17;Glu28]JzTx-V(1–29) (peptide)
NaV1.7 IC50 (nM), block of human NaV1.7 current, PatchXpress (PX) platform (human NaV1.7 [1]): 3.6 nM

[Nle6;Pra11;Glu28]JzTx-V(1–29) (peptide)
NaV1.7 IC50 (nM), block of human NaV1.7 current, PatchXpress (PX) platform (human NaV1.7 [1]): 0.5 nM

C#CC[C@@H]1NC(=O)[C@@H]2CSSC[C@H](NC(=O)[C@@H](N)Cc3ccc(O)cc3)C(=O)N[C@@H](CCC(N)=O)C(=O)N[C@@H](CCCCN)C(=O)N[C@@H](Cc3c[nH]c4ccccc34)C(=O)N[C@@H](CCCC)C(=O)N[C@@H](Cc3c[nH]c4ccccc34)C(=O)N[C@@H]([C@@H](C)O)C(=O)N[C@H]3CSSC[C@H](NC(=O)[C@H](CCCNC(=N)N)NC(=O)[C@H](CC(C)C)NC(=O)CNC1=O)C(=O)N[C@@H](CCCCN)C(=O)N[C@@H](CC(C)C)C(=O)N[C@@H](Cc1c[nH]c4ccccc14)C(=O)N[C@H](C(=O)N[C@@H](CCCNC(=N)N)C(=O)N[C@@H](CCCCN)C(=O)N[C@@H](CCC(=O)O)C(=O)N[C@H](C(N)=O)[C@@H](C)CC)CSSC[C@H](NC(=O)[C@H](C)NC(=O)[C@H](CCCNC(=N)N)NC(=O)[C@H](CCCCN)NC(=O)[C@H](CO)NC(=O)[C@H](CC(=O)O)NC3=O)C(=O)N2 [Peptide 7, [Nle6;Pra17;Glu28]JzTx-V(1–29)]
IC50 (human NaV1.4 [2]): 0.13 µM | IC50 (human NaV1.5 [3]): 3.1 µM

JzTx-V(1–29) (from UniProt Q2PAY4 54-83) (peptide)
potency (IC50) of inhibition of NaV1.7 by manual patch clamp, voltage protocol with 20% of channels inactivated (human NaV1.7 [4]): 0.00015 µM | NaV1.7 IC50 (nM), block of human NaV1.7 current in HEK293 cells, PatchXpress (PX) platform (human NaV1.7 [1]): 0.6 nM

[Glu28]JzTx-V(1–29) (peptide)
NaV1.7 IC50 (nM), block of human NaV1.7 current, PatchXpress (PX) platform (human NaV1.7 [1]): 0.6 nM

Pra-[Nle6]JzTx-V(1–29) (peptide)
NaV1.7 IC50 (nM), block of human NaV1.7 current, PatchXpress (PX) platform (human NaV1.7 [1]): 1.2 nM

C#CC[C@H](N)C(=O)N[C@H]1CSSC[C@@H]2NC(=O)[C@@H]3CSSC[C@@H](C(=O)N[C@@H](CCCNC(=N)N)C(=O)N[C@@H](CCCCN)C(=O)N[C@@H](CCC(=O)O)C(=O)N[C@H](C(N)=O)[C@@H](C)CC)NC(=O)[C@H](Cc4c[nH]c5ccccc45)NC(=O)[C@H](CC(C)C)NC(=O)[C@H](CCCCN)NC(=O)[C@H](CSSC[C@H](NC(=O)[C@H]([C@@H](C)O)NC(=O)[C@H](Cc4c[nH]c5ccccc45)NC(=O)[C@H](CCCC)NC(=O)[C@H](Cc4c[nH]c5ccccc45)NC(=O)[C@H](CCCCN)NC(=O)[C@H](CCC(N)=O)NC1=O)C(=O)N[C@@H](CC(=O)O)C(=O)N[C@@H](CO)C(=O)N[C@@H](CCCCN)C(=O)N[C@@H](CCCNC(=N)N)C(=O)N[C@@H](C)C(=O)N3)NC(=O)[C@H](CCCNC(=N)N)NC(=O)[C@H](CC(C)C)NC(=O)CNC(=O)[C@H](CCC(=O)O)NC2=O [Peptide 4, [Pra1;Nle6;Glu28]JzTx-V(1–29)]
IC50 (human NaV1.4 [2]): 0.089 µM | IC50 (human NaV1.5 [3]): 4.6 µM

Pra-[Nle6;Glu28]JzTx-V(1–29) (peptide)
NaV1.7 IC50 (nM), block of human NaV1.7 current, PatchXpress (PX) platform (human NaV1.7 [1]): 0.5 nM | IC50 of block of human NaV1.7, manual patch clamp, voltage protocol with 20% of NaV channels inactivated (human NaV1.7 [5]): 0.00058 µM | IC50 of block of wild-type NaV1.7, IWQ platform (chimera panel) (human NaV1.7 [6]): 0.05 µM | IC50 of block of wild-type NaV1.5, IWQ platform (chimera panel) (wild-type NaV1.5): > 3 µM

CC[C@H](C)[C@H](NC(=O)[C@H](CCC(=O)O)NC(=O)[C@H](CCCCN)NC(=O)[C@H](CCCNC(=N)N)NC(=O)[C@@H]1CSSC[C@@H]2NC(=O)[C@H](C)NC(=O)[C@H](CCCNC(=N)N)NC(=O)[C@H](CCCCN)NC(=O)[C@H](CO)NC(=O)[C@H](CC(=O)O)NC(=O)[C@@H]3CSSC[C@H](NC(=O)[C@H](CCCNC(=N)N)NC(=O)[C@H](CC(C)C)NC(=O)CNC(=O)[C@H](CCC(=O)O)NC(=O)[C@H](CSSC[C@H](NC(=O)[C@@H](N)Cc4ccc(O)cc4)C(=O)N[C@@H](CCC(N)=O)C(=O)N[C@@H](CCCCN)C(=O)N[C@@H](Cc4c[nH]c5ccccc45)C(=O)N[C@@H](CCSC)C(=O)N[C@@H](Cc4c[nH]c5ccccc45)C(=O)N[C@@H]([C@@H](C)O)C(=O)N3)NC2=O)C(=O)N[C@@H](CCCCN)C(=O)N[C@@H](CC(C)C)C(=O)N[C@@H](Cc2c[nH]c3ccccc23)C(=O)N1)C(N)=O [Peptide 1, [Glu28]JzTx-V(1–29)]
IC50 (human NaV1.5 [7]; human, read-out: Glu mutant IWQ IC50 NaV1.5): > 5 µM | selectivity for NaV1.7 over NaV1.4 (human NaV1.4 [2]; PX platform IC50 ratio): 500 fold

CyA-[Nle6;Pra17;Glu28]JzTx-V(1–29) (peptide)
NaV1.7 IC50 (nM), block of human NaV1.7 current, PatchXpress (PX) platform (human NaV1.7 [1]): 0.8 nM

C#CC[C@@H]1NC(=O)[C@H](CC(=O)O)NC(=O)[C@@H]2CSSC[C@@H]3NC(=O)[C@H](CCCNC(=N)N)NC(=O)[C@H](CC(C)C)NC(=O)CNC(=O)[C@H](CCC(=O)O)NC(=O)[C@H](CSSC[C@H](NC(=O)[C@@H](N)Cc4ccc(O)cc4)C(=O)N[C@@H](CCC(N)=O)C(=O)N[C@@H](CCCCN)C(=O)N[C@@H](Cc4c[nH]c5ccccc45)C(=O)N[C@@H](CCCC)C(=O)N[C@@H](Cc4c[nH]c5ccccc45)C(=O)N[C@@H]([C@@H](C)O)C(=O)N2)NC(=O)[C@H](CSSC[C@@H](C(=O)N[C@@H](CCCNC(=N)N)C(=O)N[C@@H](CCCCN)C(=O)N[C@@H](CCC(=O)O)C(=O)N[C@H](C(N)=O)[C@@H](C)CC)NC(=O)[C@H](Cc2c[nH]c4ccccc24)NC(=O)[C@H](CC(C)C)NC(=O)[C@H](CCCCN)NC3=O)NC(=O)[C@H](C)NC(=O)[C@H](CCCNC(=N)N)NC(=O)[C@H](CCCCN)NC1=O [Peptide 5, [Nle6;Pra11;Glu28]JzTx-V(1–29)]
IC50 (human NaV1.4 [2]): 0.194 µM | IC50 (human NaV1.5 [3]): 6 µM

C#CC[C@@H]1NC(=O)[C@H](CCCNC(=N)N)NC(=O)[C@H](CCCCN)NC(=O)[C@H](CO)NC(=O)[C@H](CC(=O)O)NC(=O)[C@@H]2CSSC[C@@H]3NC(=O)[C@H](CCCNC(=N)N)NC(=O)[C@H](CC(C)C)NC(=O)CNC(=O)[C@H](CCC(=O)O)NC(=O)[C@H](CSSC[C@H](NC(=O)[C@@H](N)Cc4ccc(O)cc4)C(=O)N[C@@H](CCC(N)=O)C(=O)N[C@@H](CCCCN)C(=O)N[C@@H](Cc4c[nH]c5ccccc45)C(=O)N[C@@H](CCCC)C(=O)N[C@@H](Cc4c[nH]c5ccccc45)C(=O)N[C@@H]([C@@H](C)O)C(=O)N2)NC(=O)[C@H](CSSC[C@@H](C(=O)N[C@@H](CCCNC(=N)N)C(=O)N[C@@H](CCCCN)C(=O)N[C@@H](CCC(=O)O)C(=O)N[C@H](C(N)=O)[C@@H](C)CC)NC(=O)[C@H](Cc2c[nH]c4ccccc24)NC(=O)[C@H](CC(C)C)NC(=O)[C@H](CCCCN)NC3=O)NC1=O [Peptide 6, [Nle6;Pra14;Glu28]JzTx-V(1–29)]
IC50 (human NaV1.4 [2]): 0.11 µM | IC50 (human NaV1.5 [3]): 3.5 µM

HwTx-IV (ECLEIFKACNPSNDQCCKSSKLVCSRKTRWCKYQIGK)
competition for 125I-ProTx-II binding (human NaV1.7 [8]): competed

[Pra1;Nle6;Glu28]JzTx-V(1–29) (peptide)
NaV1.7 IC50 (nM), block of human NaV1.7 current, PatchXpress (PX) platform (human NaV1.7 [1]): 0.3 nM

CC[C@H](C)[C@H](NC(=O)[C@@H](NC(=O)[C@H](CCCCN)NC(=O)[C@H](CCCNC(=N)N)NC(=O)[C@@H]1CSSC[C@@H]2NC(=O)[C@H](C)NC(=O)[C@H](CCCNC(=N)N)NC(=O)[C@H](CCCCN)NC(=O)[C@H](CO)NC(=O)[C@H](CC(=O)O)NC(=O)[C@@H]3CSSC[C@H](NC(=O)[C@H](CCCNC(=N)N)NC(=O)[C@H](C)NC(=O)CNC(=O)[C@H](CCC(=O)O)NC(=O)[C@H](CSSC[C@H](NC(=O)[C@@H](N)Cc4ccc(O)cc4)C(=O)N[C@@H](CCC(N)=O)C(=O)N[C@@H](CCCCN)C(=O)N[C@@H](Cc4c[nH]c5ccccc45)C(=O)N[C@@H](CCSC)C(=O)N[C@@H](Cc4c[nH]c5ccccc45)C(=O)N[C@@H]([C@@H](C)O)C(=O)N3)NC2=O)C(=O)N[C@@H](CCCCN)C(=O)N[C@@H](CC(C)C)C(=O)N[C@@H](Cc2c[nH]c3ccccc23)C(=O)N1)[C@@H](C)CC)C(N)=O [L19 Ala mutant]
IC50 (human NaV1.4 [9]): > 10 µM | IC50 (human NaV1.7 [10]): 2.81 µM | IC50 (human NaV1.5 [7]; read-out: Ala mutant IWQ IC50 NaV1.5): > 10 µM

[Nle6;Pra14;Glu28]JzTx-V(1–29) (peptide)
NaV1.7 IC50 (nM), block of human NaV1.7 current, PatchXpress (PX) platform (human NaV1.7 [1]): 0.5 nM
